This assay deals with Cbl (UniProt P22681). The assay is described as follows: anti-CD93 co-IP, anti-Cbl blot. Particulars: reference: wild type CD93 (res85); sites Y628,Y644.

The values that follow come from PMC4891106.

“CD93 (from UniProt Q9NPY3) Y628F/Y644F (res85Y1Y2)”: the “binding against the reference” value is reported as “lost”.
